Data reported in paper PMC4574524.

Target: PFD1235w DBLβ3_D4, wild type (P. falciparum 3D7)
Assay: SPR

ICAM-1_D1-D2 (domain or fragment)
Kd: 7.9 nM | koff: 0.00167 s⁻¹
